Data: the supplement of paper PMC7877785
± gives the uncertainty stated by the source.

Experiment: self-splicing fitness, log relative to wild type (ln ratio); higher = more splicing; Tetrahymena group I intron in knt gene, E. coli kanamycin selection, DiMSum; sequences stand for … in CUCUCU…GGAGGGAAAAGUUAUCAGGCAUGCACCUGGUAGCUAGUCUUUAAACCAAUAGAUUGCAUCGGUUUAAAAGGCAAGACCGUCAAAUUGCGGGAAAGGGGUCAACAGCCGUUCAGUACCAAGUCUCAGGGGAAACUUUGAGAUGGCCUUGCAAAGGGUAUGGUAAUAAGCUGACGGACAUGGUCCUAACCACGCAGCCAAGUCCUAAGUCAACAGAUCUUCUGUUGAUAUGGAUGCAGUUCACAGACUAAAUGUCGGUCGGGGAAGAUGUAUUCUUCUCAUAAGAUAUAGUCGGACCUCUCCUUAAUGGGAGCUAGCGGAUGAAGUGAUGCAACACUGGAGCCGCUGGGAACUAAUUUGUAUGCGAAAGUAUAUUGAUUAGUUUUGGAGUACUCGUGGUCG
Outline: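 The eight P1ex-region nucleotides of an intron in the knt kanamycin-resistance gene on pET-22b(+) were all randomised and the library put into E. coli BL21(DE3). Six replicate transformations were grown overnight at 37°C or 30°C on LB agar with or without 25 μg/mL kanamycin, together with 100 μg/mL carbenicillin, 50 μM IPTG and 0.2% rhamnose. Colonies were pooled and amplicon-sequenced on an Illumina HiSeq 2500. Fitness from DiMSum is the error-weighted combination of wild-type-normalised replicate fold changes, kanamycin over none.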

Sequence | self-splicing fitness (ln) (30 °C) | self-splicing fitness (ln) (37 °C)
CACAAGCAAUAUUACGUCCC | -2.13 ± 0.33 | -1.07 ± 0.46
UUCAAGCAAUAUUACGGAUU | -3.19 ± 0.17 | -1.96 ± 0.14
UCGUAGCAAUAUUACGUAGG | -2.71 ± 0.17 | -0.631 ± 0.15
GCCAAGCAAUAUUACGGGCU | -4.88 ± 0.28 | -2.98 ± 0.23
GUGGAGCAAUAUUACGCAAA | -2.28 ± 0.43 | -1.83 ± 0.25
AGUCAGCAAUAUUACGAAUU | -0.652 ± 0.064 | -0.509 ± 0.076
AUAAAGCAAUAUUACGGCUG | 0.334 ± 0.069 | 0.483 ± 0.1
CCUUAGCAAUAUUACGCGCA | -2.45 ± 0.4 | -1.89 ± 0.34
UAUAAGCAAUAUUACGCCAG | -0.478 ± 0.21 | -0.728 ± 0.27
CCGCAGCAAUAUUACGCUAU | -3.78 ± 0.3 | -3.04 ± 0.25
CGAAAGCAAUAUUACGCAUG | -1.56 ± 0.1 | -0.368 ± 0.11
ACAGAGCAAUAUUACGUUCU | -3.89 ± 0.26 | -3.29 ± 0.29
UGUCAGCAAUAUUACGCUGG | -4.05 ± 0.39 | -2.19 ± 0.34
GUGGAGCAAUAUUACGUAUG | -3.15 ± 0.24 | -2.3 ± 0.24
GUAGAGCAAUAUUACGUUAG | -2.43 ± 0.12 | -0.99 ± 0.19
CGAUAGCAAUAUUACGUCAG | -1.39 ± 0.13 | -1.25 ± 0.14
CGACAGCAAUAUUACGUUGU | -3.46 ± 0.1 | -3.25 ± 0.15
AUCCAGCAAUAUUACGGCGU | -0.0553 ± 0.058 | 0.269 ± 0.07
UGUGAGCAAUAUUACGGCAU | -3.25 ± 0.28 | -1.53 ± 0.15
GGGGAGCAAUAUUACGCCAU | – | -1.58 ± 0.32
ACGGAGCAAUAUUACGCAGU | -3.19 ± 0.34 | -2.35 ± 0.49
UACUAGCAAUAUUACGCCCG | 0.342 ± 0.24 | -1.04 ± 0.2
GAUCAGCAAUAUUACGCCCG | -0.808 ± 0.25 | -0.447 ± 0.21
UUGGAGCAAUAUUACGACAA | -1.07 ± 0.16 | -0.647 ± 0.18
UCUGAGCAAUAUUACGUAUA | -2.36 ± 0.17 | -2.39 ± 0.18

Sequence | self-splicing fitness (ln) (30 °C) | self-splicing fitness (ln) (37 °C)
GAGGAGCAAUAUUACGGGGU | -4.47 ± 0.34 | -2.64 ± 0.22
GGGCAGCAAUAUUACGCUUA | 0.359 ± 0.12 | 0.25 ± 0.15
UUGGAGCAAUAUUACGCGCA | -2.48 ± 0.29 | -1.09 ± 0.29
UUAUAGCAAUAUUACGCAGG | -1.06 ± 0.13 | -0.791 ± 0.16
GGUUAGCAAUAUUACGCCCA | -0.993 ± 0.27 | -1.13 ± 0.3
CAGGAGCAAUAUUACGCCAU | -2.73 ± 0.33 | -1.55 ± 0.41
GUGGAGCAAUAUUACGCGUU | -2.56 ± 0.16 | -1.94 ± 0.23
UUAUAGCAAUAUUACGGUAC | -2.88 ± 0.28 | -2.45 ± 0.41
AAGAAGCAAUAUUACGUUGA | -1.76 ± 0.12 | -2.25 ± 0.14
CCGGAGCAAUAUUACGCCUG | -2.36 ± 0.24 | -1.8 ± 0.24
CACAAGCAAUAUUACGCAGC | -3.48 ± 0.29 | –
CCUCAGCAAUAUUACGGCGC | -3.57 ± 0.2 | -2.45 ± 0.3
AUGUAGCAAUAUUACGGCGU | -1.14 ± 0.11 | -0.716 ± 0.094
GCAUAGCAAUAUUACGGUUU | -1.62 ± 0.08 | -0.625 ± 0.085
GCUAAGCAAUAUUACGGGCG | -0.341 ± 0.12 | 0.183 ± 0.14
GUAUAGCAAUAUUACGUCUG | -3.17 ± 0.17 | -1.08 ± 0.14
CAAAAGCAAUAUUACGUUUG | -3.08 ± 0.14 | -2.55 ± 0.18
CUAAAGCAAUAUUACGUUUC | -3.78 ± 0.18 | -2.69 ± 0.23
UCGGAGCAAUAUUACGUCGA | -0.356 ± 0.42 | -0.949 ± 0.3
CUGUAGCAAUAUUACGGUAA | -3.63 ± 0.24 | -2.3 ± 0.26
CUGUAGCAAUAUUACGCGCA | -2.23 ± 0.39 | -2.52 ± 0.41
GUACAGCAAUAUUACGGCAC | -0.68 ± 0.11 | 0.0875 ± 0.12
CUUCAGCAAUAUUACGGUGC | -3.36 ± 0.21 | -1.56 ± 0.31
CUGGAGCAAUAUUACGAGGC | -2.02 ± 0.4 | -0.672 ± 0.47
UUGGAGCAAUAUUACGCCAG | -3.07 ± 0.26 | -2.07 ± 0.37

Sequence | self-splicing fitness (ln) (30 °C) | self-splicing fitness (ln) (37 °C)
AAGGAGCAAUAUUACGCACG | -1.84 ± 0.43 | -0.01 ± 0.45
GUCUAGCAAUAUUACGGUAC | -0.985 ± 0.14 | -0.625 ± 0.17
AUAUAGCAAUAUUACGAUCA | -1.4 ± 0.16 | -0.365 ± 0.22
CGUUAGCAAUAUUACGUUAG | -0.796 ± 0.081 | -0.539 ± 0.1
CUACAGCAAUAUUACGGCGG | -1.34 ± 0.084 | -1.47 ± 0.094
GGAGAGCAAUAUUACGUGUU | -4.51 ± 0.37 | -1.64 ± 0.31
CGGUAGCAAUAUUACGGUUA | -2.23 ± 0.13 | -1.3 ± 0.11
AGACAGCAAUAUUACGCAGG | -3.5 ± 0.2 | -1.25 ± 0.16
ACACAGCAAUAUUACGAGUU | -3.49 ± 0.14 | -2.18 ± 0.14
GAUUAGCAAUAUUACGUUGU | -2.91 ± 0.23 | -2.15 ± 0.28
CACUAGCAAUAUUACGACUU | -2.29 ± 0.15 | -0.517 ± 0.12
GGUCAGCAAUAUUACGUGUG | -1.39 ± 0.069 | -0.514 ± 0.092
GUUGAGCAAUAUUACGCCCA | -1.93 ± 0.45 | -1.74 ± 0.38
GGUCAGCAAUAUUACGACAC | 0.184 ± 0.32 | -0.0653 ± 0.25
CAUCAGCAAUAUUACGCCCC | -1.56 ± 0.21 | –
UAGAAGCAAUAUUACGAACA | -0.322 ± 0.16 | -0.859 ± 0.17
GUCAAGCAAUAUUACGAUUA | -1.04 ± 0.1 | -0.259 ± 0.068
UGUUAGCAAUAUUACGACAG | -1.39 ± 0.17 | 0.0704 ± 0.2
CUAGAGCAAUAUUACGAGAU | -3.54 ± 0.17 | -1.67 ± 0.15
ACUUAGCAAUAUUACGGCGA | -1.21 ± 0.21 | -0.343 ± 0.21
CCUAAGCAAUAUUACGGGAG | -4.51 ± 0.24 | -2.93 ± 0.21
UACGAGCAAUAUUACGUACU | -3.32 ± 0.32 | -1.76 ± 0.22
CAUGAGCAAUAUUACGACGC | -3.01 ± 0.23 | -1.99 ± 0.3
AUCCAGCAAUAUUACGUCAG | -2.99 ± 0.11 | -2.15 ± 0.12
GCUCAGCAAUAUUACGAUCA | -0.7 ± 0.19 | -0.164 ± 0.17
